Data taken from the Human Domainome abundance scans (Beltran et al. 2025).
± gives the uncertainty stated by the source.

Assay: abundance fitness (aPCA) (normalised: wild type 0, dead -1); higher = more abundant; growth selection in yeast, the domain comes from the species named
Details: Homo sapiens

| Substance | abundance fitness |
| --- | --- |
| Lipoamide acyltransferase component of branched-chain alpha-keto acid dehydrogenase complex, mitochondrial L201S, P11182 | -0.171 ± 0.061 |
| Lipoamide acyltransferase component of branched-chain alpha-keto acid dehydrogenase complex, mitochondrial L201T, P11182 | 0.035 ± 0.054 |
| Lipoamide acyltransferase component of branched-chain alpha-keto acid dehydrogenase complex, mitochondrial L201V, P11182 | -0.096 ± 0.037 |
| Lipoamide acyltransferase component of branched-chain alpha-keto acid dehydrogenase complex, mitochondrial L201W, P11182 | -0.683 ± 0.052 |
| Lipoamide acyltransferase component of branched-chain alpha-keto acid dehydrogenase complex, mitochondrial L206A, P11182 | -0.08 ± 0.036 |
| Lipoamide acyltransferase component of branched-chain alpha-keto acid dehydrogenase complex, mitochondrial L206C, P11182 | -0.555 ± 0.34 |
| Lipoamide acyltransferase component of branched-chain alpha-keto acid dehydrogenase complex, mitochondrial L206D, P11182 | 0.01 ± 0.065 |
| Lipoamide acyltransferase component of branched-chain alpha-keto acid dehydrogenase complex, mitochondrial L206E, P11182 | 0.007 ± 0.06 |
| Lipoamide acyltransferase component of branched-chain alpha-keto acid dehydrogenase complex, mitochondrial L206F, P11182 | -0.353 ± 0.36 |
| Lipoamide acyltransferase component of branched-chain alpha-keto acid dehydrogenase complex, mitochondrial L206G, P11182 | -0.149 ± 0.033 |
| Lipoamide acyltransferase component of branched-chain alpha-keto acid dehydrogenase complex, mitochondrial L206K, P11182 | -0.113 ± 0.065 |
| Lipoamide acyltransferase component of branched-chain alpha-keto acid dehydrogenase complex, mitochondrial L206N, P11182 | -0.052 ± 0.066 |
| Lipoamide acyltransferase component of branched-chain alpha-keto acid dehydrogenase complex, mitochondrial L206P, P11182 | -0.291 ± 0.063 |
| Lipoamide acyltransferase component of branched-chain alpha-keto acid dehydrogenase complex, mitochondrial L206Q, P11182 | -0.028 ± 0.051 |
| Lipoamide acyltransferase component of branched-chain alpha-keto acid dehydrogenase complex, mitochondrial L206R, P11182 | -0.071 ± 0.035 |
| Lipoamide acyltransferase component of branched-chain alpha-keto acid dehydrogenase complex, mitochondrial L206S, P11182 | -0.072 ± 0.049 |
| Lipoamide acyltransferase component of branched-chain alpha-keto acid dehydrogenase complex, mitochondrial L206V, P11182 | -0.026 ± 0.043 |
| Lipoamide acyltransferase component of branched-chain alpha-keto acid dehydrogenase complex, mitochondrial L206W, P11182 | -0.135 ± 0.052 |
| Lipoamide acyltransferase component of branched-chain alpha-keto acid dehydrogenase complex, mitochondrial L209A, P11182 | 0.037 ± 0.043 |
| Lipoamide acyltransferase component of branched-chain alpha-keto acid dehydrogenase complex, mitochondrial L209C, P11182 | -0.052 ± 0.057 |
| Lipoamide acyltransferase component of branched-chain alpha-keto acid dehydrogenase complex, mitochondrial L209D, P11182 | -0.203 ± 0.045 |
| Lipoamide acyltransferase component of branched-chain alpha-keto acid dehydrogenase complex, mitochondrial L209E, P11182 | -0.153 ± 0.04 |
| Lipoamide acyltransferase component of branched-chain alpha-keto acid dehydrogenase complex, mitochondrial L209F, P11182 | -0.211 ± 0.098 |
| Lipoamide acyltransferase component of branched-chain alpha-keto acid dehydrogenase complex, mitochondrial L209G, P11182 | -0.081 ± 0.034 |

| Substance | abundance fitness |
| --- | --- |
| Lipoamide acyltransferase component of branched-chain alpha-keto acid dehydrogenase complex, mitochondrial L209I, P11182 | 0.047 ± 0.17 |
| Lipoamide acyltransferase component of branched-chain alpha-keto acid dehydrogenase complex, mitochondrial L209K, P11182 | 0.079 ± 0.087 |
| Lipoamide acyltransferase component of branched-chain alpha-keto acid dehydrogenase complex, mitochondrial L209N, P11182 | -0.138 ± 0.073 |
| Lipoamide acyltransferase component of branched-chain alpha-keto acid dehydrogenase complex, mitochondrial L209P, P11182 | -0.226 ± 0.051 |
| Lipoamide acyltransferase component of branched-chain alpha-keto acid dehydrogenase complex, mitochondrial L209Q, P11182 | -0.072 ± 0.043 |
| Lipoamide acyltransferase component of branched-chain alpha-keto acid dehydrogenase complex, mitochondrial L209R, P11182 | 0.006 ± 0.036 |
| Lipoamide acyltransferase component of branched-chain alpha-keto acid dehydrogenase complex, mitochondrial L209S, P11182 | -0.026 ± 0.041 |
| Lipoamide acyltransferase component of branched-chain alpha-keto acid dehydrogenase complex, mitochondrial L209T, P11182 | -0.131 ± 0.058 |
| Lipoamide acyltransferase component of branched-chain alpha-keto acid dehydrogenase complex, mitochondrial L209V, P11182 | 0.006 ± 0.039 |
| Lipoamide acyltransferase component of branched-chain alpha-keto acid dehydrogenase complex, mitochondrial L209W, P11182 | -0.27 ± 0.047 |
| Lipoamide acyltransferase component of branched-chain alpha-keto acid dehydrogenase complex, mitochondrial L209Y, P11182 | -0.232 ± 0.087 |
| Lipoamide acyltransferase component of branched-chain alpha-keto acid dehydrogenase complex, mitochondrial M182A, P11182 | 0.018 ± 0.072 |
| Lipoamide acyltransferase component of branched-chain alpha-keto acid dehydrogenase complex, mitochondrial M182C, P11182 | -0.478 ± 0.12 |
| Lipoamide acyltransferase component of branched-chain alpha-keto acid dehydrogenase complex, mitochondrial M182I, P11182 | -0.408 ± 0.24 |
| Lipoamide acyltransferase component of branched-chain alpha-keto acid dehydrogenase complex, mitochondrial M182T, P11182 | -0.173 ± 0.075 |
| Lipoamide acyltransferase component of branched-chain alpha-keto acid dehydrogenase complex, mitochondrial N184E, P11182 | -0.859 ± 0.39 |
| Lipoamide acyltransferase component of branched-chain alpha-keto acid dehydrogenase complex, mitochondrial N184G, P11182 | -0.294 ± 0.093 |
| Lipoamide acyltransferase component of branched-chain alpha-keto acid dehydrogenase complex, mitochondrial N184L, P11182 | -0.325 ± 0.11 |
| Lipoamide acyltransferase component of branched-chain alpha-keto acid dehydrogenase complex, mitochondrial N184P, P11182 | -1.08 ± 0.4 |
| Lipoamide acyltransferase component of branched-chain alpha-keto acid dehydrogenase complex, mitochondrial N184Q, P11182 | -0.16 ± 0.1 |
| Lipoamide acyltransferase component of branched-chain alpha-keto acid dehydrogenase complex, mitochondrial N184R, P11182 | -0.097 ± 0.072 |
| Lipoamide acyltransferase component of branched-chain alpha-keto acid dehydrogenase complex, mitochondrial N184S, P11182 | 0.168 ± 0.38 |
| Lipoamide acyltransferase component of branched-chain alpha-keto acid dehydrogenase complex, mitochondrial N184W, P11182 | -0.179 ± 0.1 |
| Lipoamide acyltransferase component of branched-chain alpha-keto acid dehydrogenase complex, mitochondrial N185A, P11182 | -0.21 ± 0.074 |
